# Measured values: patent US20250136720A1 (Boehringer Ingelheim, published 2025)
# Assays:
# [1] = target: T1, Murine Fibroblast Activation Protein (FAP) on B16 cells (mouse, UniProt P97321 1-761); assay: flow cytometry, scFv-Fc on B16-FAP cells
# T1 construct: B16 cells transduced with murine FAP cDNA; also called B16-FAP
# [2] = target: T2, Human Fibroblast Activation Protein (FAP) on HT1080 cells (human, UniProt Q12884 1-760); assay: flow cytometry, scFv-Fc on HT1080-FAP cells
# T2 construct: HT1080 cells transduced with human FAP cDNA; also called HT1080-FAP; FAP+ HT1080
# [3] = target: T3, Human CD137 on Jurkat cells (human, UniProt Q07011 24-255); assay: flow cytometry, Jurkat cells;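 note: binding of antibody-containing supernatants to NF-kB-Luc2/4-1BB Jurkat cells, detected by flow cytometry with a PE-labelled anti-human IgG-Fc secondary antibody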
# T3 construct: whole, on cells; also called full-length human CD137-expressing Jurkat cell line; NF-kB-Luc2/4-1BB Jurkat
# human FAP protein = human FAP protein (human, UniProt Q12884 26-760, limits assumed); assay: method not stated
# mouse FAP protein = target: T4, mouse FAP protein (mouse, UniProt P97321 1-761); assay: method not stated
# T4 construct: also called murine FAP
# T4 sequence (P97321 other isoform, or with tags, fused parts or gaps limits assumed, form in doubt): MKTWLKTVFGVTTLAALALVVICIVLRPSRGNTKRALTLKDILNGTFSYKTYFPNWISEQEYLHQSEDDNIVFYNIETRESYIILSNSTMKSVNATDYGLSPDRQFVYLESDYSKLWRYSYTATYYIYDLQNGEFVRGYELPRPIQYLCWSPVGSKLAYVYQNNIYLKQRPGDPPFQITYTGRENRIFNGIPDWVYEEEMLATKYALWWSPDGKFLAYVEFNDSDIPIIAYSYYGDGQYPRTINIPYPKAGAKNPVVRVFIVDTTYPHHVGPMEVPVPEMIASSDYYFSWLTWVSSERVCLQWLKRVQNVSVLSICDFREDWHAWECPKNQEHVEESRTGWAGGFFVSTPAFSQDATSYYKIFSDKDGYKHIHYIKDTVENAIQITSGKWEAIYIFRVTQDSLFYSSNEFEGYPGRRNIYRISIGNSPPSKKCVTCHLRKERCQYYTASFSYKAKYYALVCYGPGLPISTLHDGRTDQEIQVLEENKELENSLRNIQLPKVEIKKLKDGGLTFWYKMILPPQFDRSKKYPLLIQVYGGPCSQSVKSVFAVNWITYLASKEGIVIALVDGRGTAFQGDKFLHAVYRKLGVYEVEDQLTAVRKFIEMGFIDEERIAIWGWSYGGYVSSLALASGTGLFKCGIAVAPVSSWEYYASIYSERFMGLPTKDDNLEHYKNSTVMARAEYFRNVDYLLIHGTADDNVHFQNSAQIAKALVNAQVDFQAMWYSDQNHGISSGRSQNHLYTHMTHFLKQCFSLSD
# T1 sequence (P97321 other isoform, or with tags, fused parts or gaps): as the sequence (P97321 other isoform, or with tags, fused parts or gaps limits assumed, form in doubt) above
Binder,MFI [1],MFI [2],binding result [3],Kd (human FAP protein),Kd (mouse FAP protein)
"FAP.65.F1 (Fc fusion, Tested as scFv-Fc; orientation, linker and Fc of this construct not specified) VH: DVQLVESGGGLVHPGGSLRLSCAASTFTFANYIMSWVRQAPGKGLEWVSGITGSSTNTYYTDSVKGRFTISRDNSKNTLYLEMNSLRAEDTAVYYCAKHQLYPYYAMDVWGQGTTVTVSS VL: EIVLTQSPGSLSLSPGERATLSCRASQPIDSYLAWYQQKPGQAPRLLIYGASTRATDIPDRFSGSGSGTEFTLTISSLQSEDFAVYYCQQYYDWPPVTFGGGTKVEIK",1840 MFI,35600 MFI,,,
"FAP.84.C11 (Fc fusion, Tested as scFv-Fc; orientation, linker and Fc of this construct not specified) VH: not shown VL: EIVLTQSPGTLSLSPGERAILSCRASQTVGSRLAWYQQKPGQAPRLLIYAASSRATGIPDRFSGSGSGTEFTLTISSLQSEDFAVYYCQQYYDWPPLTFGGGTKVEIK",1430 MFI,27000 MFI,,,
"FAP.84.A11 (Fc fusion, Tested as scFv-Fc; orientation, linker and Fc of this construct not specified) VH: DVQLVESGGGLVQPGGSLRLSCAASGFSMSNFAMTWVRQAPGEGLEWVSGIRGSGTTYYADSVKGRFTVSRDNSKNTLYLQMNSLRAEDTAIYYCAKTWGTEYFDYWGLGTLVTVSS VL: EIVLTQSPGTLSLSPGERATLSCRASQPINNYLAWYQQKPGQAPRLLIFSASNRATGIPDRFSGSGSGTEFTLTISSLEPEDFAVYYCQQYYDWPPYTFGGGTKVEIK",1410 MFI,27300 MFI,,,
"FAP.84.B7 (Fc fusion, Tested as scFv-Fc; orientation, linker and Fc of this construct not specified) VH: DVQLVESGGGVVRPGESLRLSCAASGFIFRNYAMTWVRQAPGEGLEWVSTIRSSGSGRTDTYYADSVKGRFTISRDSSNNTLYLQMNSLRAEDTAVYYCAKSGTFWDTFFDYWGLGTLVTVSS VL: EIVLTQNPGTLNLSPGERATLTCRASQSAGRNLAWYQQKPGQTPRLLIYDVNTRATGIPDRFSGSGSGTEFNLTISSLQNEDFAVYYCQQYNNWPPLTFGGGTKVEIK",1610 MFI,24000 MFI,,,
"FAP.84.B8 (Fc fusion, Tested as scFv-Fc; orientation, linker and Fc of this construct not specified) VH: DVQLVESGGSVVRPGESLRLSCAASGFPFSSYPMTWVRQAPGEGLEWVSSIRGSGDRIHYADSVKGRFTISKDSSNNTLYLQMNSLRAEDTAVYYCATGWNFFDYWGLGTLVTVSS VL: EIVLTQSPGTLSLSPGERATLSCRASQTVATYLAWYQQKPGQAPRLLIYAAISRATGIPDRFSGSGSGTDFTLTITRLEPEDSAVYYCQQYKDWPPLTFGGGTKVEIK",1490 MFI,24300 MFI,,,
"FAP.84.A9 (Fc fusion, Tested as scFv-Fc; orientation, linker and Fc of this construct not specified) VH: DVQLVESGGGVVRPGGSLRLSCAASGFPFSSYPMTWVRQAPGEGLEWVSSIRPIGDRIHYADSVKGRFTISRDSSNNTLYLQMNSLRAEDTAVYYCATGWNFFDYWGLGTLVTVSS VL: EIVLTQSPGTLSLSPGERATLTCRASQTVATYLAWYQQKPGQAPRLLIYAAISRATGIPDRFIGSGSGTDFTLTINRLEPEDFAVYYCQQYKDWPPLTFGGGTKVEIK",1300 MFI,25400 MFI,,,
"CD137 #A42 (antibody, V domains shown, human IgG1 KO (L234A/L235A)/kappa chimeric IgG) VH: QVQLQQSGPGLVKPSQTLSLTCAISGDSVSSNSAAWNWIRQSPSRGLEWLGRTYYRSNWYNDYAVSVESRITIKPDTSKNQFSLQLNSVTPEDTAVYYCARMDSGTYLDAFDIWGQGTMVTVSS VL: EIVMTQSPATLSVSPGERATLSCRASQSVGRNLAWYQQKPGQTPRLLIYGASTRATGIPAIFSGSGSGTEFTLTISSLQSEDFAVYYCQQYNYWPPFTFAQGTKLEIK",,,binds,,
"FAP.63.D7 (Fc fusion, Tested as scFv-Fc; orientation, linker and Fc of this construct not specified) VH: DVQLVESGGGVVRPGESLRLSCAASGFTFSSYAMSWVRQTPGEGLEWVSFISSGGAYTHYTDSVKGRFTISRDNSKNTLYLQMNSLRAEDTAVYYCAKEKEIWNAFFDYWGLGTLVTVSS VL: EIVLTQSPATLNLSPGDRATLTCRASQTVGSKLAWYQQTSGQAPRLLIYDASSRATGIPDRFSGSGSGTEFTLTISSLEPEDFAVYVCQQYYDWPPLTFGGGTKVEIK",3360 MFI,49100 MFI,,,
"FAP.63.G3 (Fc fusion, Tested as scFv-Fc; orientation, linker and Fc not specified; also called FAP.63.C3; FAP 63.C3) VH: DVQLVESGGGVVRPGESLTLSCAASGFTFSNYDMGWVRQAPGEGLEWVSGIRGRGGSTYYADSVKGRFTISRDSSKNTLYLQMNSLRAEDTAVYYCAKENNRHSFFEYWGLGTLVTVSS VL: EIVLTQSPGTLSLSPGERATLSCRASQSVGHYLAWYQQKPGQAPRLLIYDASNRAIDIPDRFSGSGSGTEFTLTISRLEPEDFAVYYCQQYYNNWPPLTFGGGTKVEIK",1410 MFI,72800 MFI,,,
"FAP.63.H3 (Fc fusion, Tested as scFv-Fc; orientation, linker and Fc of this construct not specified) VH: not shown VL: EIVLTQSPGTLSLSPGERATLSCRASQSVGYYLAWYQQKPGQAPRLLIYDASDRATAIPDRFSGSGSGTEFTLTISRLEPEDFAVYYCQQYYNNWPPLTFGGGTKVEIK",2830 MFI,75000 MFI,,,
"CD137 #B4 (antibody, human IgG1, V domains shown, human IgG1 KO (L234A/L235A)/kappa chimeric IgG) VH: DVQLQESGPGLVKPSQSLSLTCTVTGYSITSDYAWNWIRQFPGNRLEWMGYISYSGSTSYNPSLKSRISITRDTSKNQFFLQLNSVTTEDTATYFCARWGYVLDYWGQGTSVTVSS VL: DIVMTQSHKFMSTSEGDRVSITCKASQDVSTAVAWYQQKPGQSPKLLIYWASTRHTGVPDRFRGSGSGTDYTLTISSVQAEDLALYFCQQHYFTPYTFGGGTKLEIK",,,binds,,
"FAP-C3 parental (scFv, the format in the KD assay is told only as 'SCFV'; also called FAP-C3SCFVWT; FAP #4) scFv: EIVLTQSPGTLSLSPGERATLSCRASQSVGHYLAWYQQKPGQAPRLLIYDASNRAIDIPDRFSGSGSGTEFTLTISRLEPEDFAVYYCQQYYNNWPPLTFGGGTKVEIKGGGGSGGGGSGGGGSGGGGSDVQLVESGGGVVRPGESLTLSCAASGFTFSNYDMGWVRQAPGEGLEWVSGIRGRGGSTYYADSVKGRFTISRDSSKNTLYLQMNSLRAEDTAVYYCAKENNRHSFFEYWGLGTLVTVSS",,,,0.036 nM,33 nM
"FAP-C3 VK1-VH14 (FAP #5) (scFv, format in the KD assay not described; also called FAP-C3VK1VH14 (ND, SY, ES, ES, ER); FAP-C3-VK1-VH4) scFv: EIVLTQSPGTLSLSPGERATLSCRASQSVGHYLAWYQQKPGQAPRLLIYDASNRAIDIPDRFSGSGSGTEFTLTISRLEPEDFAVYYCQQYYNDWPPLTFGGGTKVEIKGGGGSGGGGSGGGGSGGGGSDVQLVESGGGVVRPGESLTLSCAASGFTFSSYDMGWVRQAPGEGLEWVSGIRGRGGSTYYAESVKGRFTISRESSKNTLYLQMNSLRAEDTAVYYCAKENERHSFFEYWGLGTLVTVSS",,,,0.024 nM,4.6 nM
"FAP.84.B2 (Fc fusion, Tested as scFv-Fc; orientation, linker and Fc of this construct not specified) VH: DVQLVESGGGVVRPGESLRLSCAASGFSFSSYAMNWVRQAPGKGLEWVSAISGSGGGTFYADSVKGRFTISRDNSKNTLYLQMNSLRAEDTAIYYCAKDPFGYGFFDSWGLGTLVTVSS VL: EIVMTQSPATLSVSPGDRATLSCRASQTVGSKLAWYQQKPGQAPRLLIYAASSRATGIPDRFSGSGSGTDFTLTISSLEPEDFAVYYCQQYYNWPPAFGGGTKVEIK",2260 MFI,17300 MFI,,,
"CD137 #B27 (antibody, human IgG1, V domains shown, human IgG1 KO (L234A/L235A)/kappa chimeric IgG) VH: QVQLQQSGAELVRPGASVKISCKAFGYTFTNHHINWVKQRPGQGLDWIGYINPYNDYSGYNQKFKGRATLTVDKSSNTAYMELSSLTSEDSAVYYCATPGTWEGYYFDYWGQGTTLTVSS VL: DVVMTQTPLSLPVSLGDQASISCRSSQSLVHSNGNTYLEWYLQKPGQSPKVLIYMVSNRFSGVPDRFSGSGSGTDFTLKISRVEAEDLGVYYCFQGSHIPLTFGAGTKLELK",,,binds,,
"FAP-A11 parental (scFv, the format in the KD assay is told only as 'SCFV'; also called FAP-A11SCFV(WT); FAP #1) scFv: EIVLTQSPGTLSLSPGERATLSCRASQPINNYLAWYQQKPGQAPRLLIFSASNRATGIPDRFSGSGSGTEFTLTISSLEPEDFAVYYCQQYYDWPPYTFGGGTKVEIKGGGGSGGGGSGGGGSGGGGSDVQLVESGGGLVQPGGSLRLSCAASGFSMSNFAMTWVRQAPGEGLEWVSGIRGSGTTYYADSVKGRFTVSRDNSKNTLYLQMNSLRAEDTAIYYCAKTWGTEYFDYWGLGTLVTVSS",,,,1.04 nM,< 0.02 nM
"FAP-A11 VK7-VH1 (FAP #3) (scFv, format in the KD assay not described; also called FAP-A11VK7VH1 (SS, NNN)) scFv: EIVLTQSPGTLSLSPGERATLSCRASQPISSYLAWYQQKPGQAPRLLIFSASNRATGIPDRFSGSGSGTEFTLTISSLEPEDFAVYYCQQYYDWPPYTFGGGTKVEIKGGGGSGGGGSGGGGSGGGGSDVQLVESGGGLVQPGGSLRLSCAASGFSMSNFAMTWVRQAPGEGLEWVSGIRGSGTTYYAESVKGRFTVSRDNSKNTLYLQMNSLRAEDTAIYYCAKTWGTEYFDYWGLGTLVTVSS",,,,1.5 nM,< 0.02 nM
"FAP-A11 VK3-VH1 (scFv, also called FAP-A11VK3VH1 (RS, NNN)) scFv: EIVLTQSPGTLSLSPGERATLSCRASQPIRSYLAWYQQKPGQAPRLLIFSASNRATGIPDRFSGSGSGTEFTLTISSLEPEDFAVYYCQQYYDWPPYTFGGGTKVEIKGGGGSGGGGSGGGGSGGGGSDVQLVESGGGLVQPGGSLRLSCAASGFSMSNFAMTWVRQAPGEGLEWVSGIRGSGTTYYAESVKGRFTVSRDNSKNTLYLQMNSLRAEDTAIYYCAKTWGTEYFDYWGLGTLVTVSS",,,,0.199 nM,< 0.02 nM
"FAP-A11 VK3-VH13 (FAP #2) (scFv, format in the KD assay not described; also called FAP-A11VK3VH13 (RS, QQQ); A11 VK3/VH3) scFv: EIVLTQSPGTLSLSPGERATLSCRASQPIRSYLAWYQQKPGQAPRLLIFSASNRATGIPDRFSGSGSGTEFTLTISSLEPEDFAVYYCQQYYDWPPYTFGGGTKVEIKGGGGSGGGGSGGGGSGGGGSDVQLVESGGGLVQPGGSLRLSCAASGFSMSNFAMTWVRQAPGEGLEWVSGIRGSGTTYYAESVKGRFTVSRDQSKQTLYLQMQSLRAEDTAIYYCAKTWGTEYFDYWGLGTLVTVSS",,,,0.538 nM,< 0.02 nM
